Source: patent US12467929

Tests used:
[1] = biological target: recombinant UBE3A protein (Homo sapiens (Human)) (UniProt Q05086); assay: 2-step Simoa; capture GTX; UBE3A 7.81 ng/ml
[2] = biological target: recombinant UBE3A protein (Homo sapiens (Human)) (UniProt Q05086); assay: Simoa; capture GTX; SBG 100 pm; UBE3A 4.00 ng/ml
[3] = biological target: recombinant UBE3A protein (Homo sapiens (Human)) (UniProt Q05086); assay: Simoa; capture GTX; SBG 75 pm; UBE3A 0.0320 ng/ml
[4] = biological target: recombinant UBE3A protein (Homo sapiens (Human)) (UniProt Q05086); assay: Simoa; capture GTX; 3E5 0.8 ug/ml; UBE3A 20.0 ng/ml
[5] = biological target: recombinant UBE3A protein (Homo sapiens (Human)) (UniProt Q05086); assay: Simoa; capture GTX; SBG 150 pm; UBE3A 0.00128 ng/ml
[6] = biological target: recombinant UBE3A protein (Homo sapiens (Human)) (UniProt Q05086); assay: Simoa; capture GTX; 3E5 0.1 ug/ml; UBE3A 0.160 ng/ml
[7] = biological target: recombinant UBE3A protein (Homo sapiens (Human)) (UniProt Q05086); assay: Simoa; capture GTX; 3E5 0.1 ug/ml; UBE3A 0.800 ng/ml
[8] = biological target: recombinant UBE3A protein (Homo sapiens (Human)) (UniProt Q05086); assay: Simoa; capture GTX; 3E5 0.2 ug/ml; UBE3A 0.160 ng/ml
[9] = biological target: recombinant UBE3A protein (Homo sapiens (Human)) (UniProt Q05086); assay: Simoa head-to-head, Table 11; capture MS 2F6; UBE3A 100 ng/ml
[10] = biological target: recombinant UBE3A protein (Homo sapiens (Human)) (UniProt Q05086); assay: Simoa head-to-head, Table 11; capture MS 2F6; UBE3A 500 ng/ml
[11] = biological target: recombinant UBE3A protein (Homo sapiens (Human)) (UniProt Q05086); assay: Simoa head-to-head, Table 10; capture MS 2F6; UBE3A 4.00 ng/ml
[12] = biological target: recombinant UBE3A protein (Homo sapiens (Human)) (UniProt Q05086); assay: Simoa head-to-head, Table 11; capture MS 2F6; UBE3A 0.80 ng/ml
[13] = biological target: recombinant UBE3A protein (Homo sapiens (Human)) (UniProt Q05086); assay: Simoa; capture GTX + helper beads; 3E5 0.1 ug/ml; UBE3A 20.0 ng/ml
[14] = biological target: recombinant UBE3A protein (Homo sapiens (Human)) (UniProt Q05086); assay: Simoa; capture GTX + helper beads; 3E5 0.1 ug/ml; UBE3A 0.800 ng/ml
[15] = biological target: recombinant UBE3A protein (Homo sapiens (Human)) (UniProt Q05086); assay: Simoa; capture GTX, no helper beads; 3E5 0.2 ug/ml; UBE3A 20.0 ng/ml
[16] = biological target: recombinant UBE3A protein (Homo sapiens (Human)) (UniProt Q05086); assay: Simoa; capture GTX, no helper beads; 3E5 0.2 ug/ml; UBE3A 4.00 ng/ml
[17] = biological target: recombinant UBE3A protein (Homo sapiens (Human)) (UniProt Q05086); assay: Simoa; capture GTX, no helper beads; 3E5 0.4 ug/ml; UBE3A 20.0 ng/ml
[18] = biological target: recombinant UBE3A protein (Homo sapiens (Human)) (UniProt Q05086); assay: Simoa; capture GTX + helper beads; 3E5 0.1 ug/ml; UBE3A 0.00128 ng/ml
[19] = biological target: recombinant UBE3A protein (Homo sapiens (Human)) (UniProt Q05086); assay: Simoa; capture GTX + helper beads; 3E5 0.1 ug/ml; UBE3A 0.00640 ng/ml
[20] = biological target: recombinant UBE3A protein (Homo sapiens (Human)) (UniProt Q05086); assay: Simoa; capture GTX, no helper beads; 3E5 0.1 ug/ml; UBE3A 0.00640 ng/ml

Chain of UniProt Q05086 (Q05086 whole entry): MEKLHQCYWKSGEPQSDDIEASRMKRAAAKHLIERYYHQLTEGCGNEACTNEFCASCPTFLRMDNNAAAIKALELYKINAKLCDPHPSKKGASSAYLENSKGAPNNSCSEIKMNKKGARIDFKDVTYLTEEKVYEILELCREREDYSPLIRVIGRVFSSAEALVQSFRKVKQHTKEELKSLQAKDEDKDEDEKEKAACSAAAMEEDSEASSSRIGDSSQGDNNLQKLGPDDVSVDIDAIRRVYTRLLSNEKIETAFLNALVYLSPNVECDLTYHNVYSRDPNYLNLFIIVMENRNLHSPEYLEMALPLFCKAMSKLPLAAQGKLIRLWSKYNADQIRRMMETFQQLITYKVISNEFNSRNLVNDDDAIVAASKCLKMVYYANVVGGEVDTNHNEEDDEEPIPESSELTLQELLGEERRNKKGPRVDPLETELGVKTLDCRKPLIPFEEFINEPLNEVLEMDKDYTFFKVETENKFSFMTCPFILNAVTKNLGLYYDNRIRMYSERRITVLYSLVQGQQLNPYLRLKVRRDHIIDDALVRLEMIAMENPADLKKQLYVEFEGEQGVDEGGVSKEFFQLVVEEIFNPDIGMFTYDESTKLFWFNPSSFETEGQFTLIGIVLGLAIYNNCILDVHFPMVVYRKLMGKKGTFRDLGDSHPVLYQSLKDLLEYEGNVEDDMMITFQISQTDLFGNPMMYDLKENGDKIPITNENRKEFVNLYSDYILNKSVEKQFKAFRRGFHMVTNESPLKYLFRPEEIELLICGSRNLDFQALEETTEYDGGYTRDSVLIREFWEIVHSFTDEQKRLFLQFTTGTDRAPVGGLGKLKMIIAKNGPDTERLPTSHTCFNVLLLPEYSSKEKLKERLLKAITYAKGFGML

**Q.** Which results are given for NB500-240 (Novus) (antibody)?
**A.** AEB1 [1]: 0.058; AEB2 [1]: 0.0481; Ave AEB [1]: 0.053; Signal to Background [1]: 16.2

**Q.** Which results are given for “anti-UBE3A antibody 3E5 (SAB1404508-100 ug, Millipore-Sigma)”?
**A.** AEB1 [2]: 0.739; AEB2 [2]: 0.78; AEB3 [2]: 0.707; Average AEB [2]: 0.742; Signal to Background [2]: 88.5; AEB1 [3]: 0.0091; AEB2 [3]: 0.0117; AEB3 [3]: 0.0116; Average AEB [3]: 0.0108; Signal to Background [3]: 2.47; AEB1 [4]: 9.16; AEB2 [4]: 10.3; AEB3 [4]: 9.37; Average AEB [4]: 9.62; Signal to Background [4]: 78.5; AEB1 [5]: 0.013; AEB2 [5]: 0.018; AEB3 [5]: 0.0134; Average AEB [5]: 0.0148; Signal to Background [5]: 1.12; AEB1 [6]: 0.0828; AEB2 [6]: 0.0846; Average AEB [6]: 0.0837; Signal to Background [6]: 4.34; AEB1 [7]: 0.257; AEB2 [7]: 0.27; AEB3 [7]: 0.245; Average AEB [7]: 0.257; Signal to Background [7]: 13.3; AEB1 [8]: 0.125; AEB2 [8]: 0.123; AEB3 [8]: 0.121; Average AEB [8]: 0.123; Signal to Background [8]: 3.14; AEB1 [9]: 1.79; AEB2 [9]: 1.84; Ave AEB [9]: 1.81; Signal to Background [9]: 479; AEB1 [10]: 8.9; AEB2 [10]: 8.6; Ave AEB [10]: 8.75; Signal to Background [10]: 2310; AEB1 [11]: 0.132; AEB2 [11]: 0.127; Ave AEB [11]: 0.13; Signal to Background [11]: 9.58; AEB1 [12]: 0.0183; AEB2 [12]: 0.0197; Ave AEB [12]: 0.019; Signal to Background [12]: 5.03; AEB1 [13]: 3.37; AEB2 [13]: 3.48; Average AEB [13]: 3.42; Signal to Background [13]: 597; AEB1 [14]: 0.167; AEB2 [14]: 0.166; Average AEB [14]: 0.166; Signal to Background [14]: 29; AEB1 [15]: 4.96; AEB2 [15]: 5; Average AEB [15]: 4.98; Signal to Background [15]: 514; AEB1 [16]: 0.878; AEB2 [16]: 0.851; Average AEB [16]: 0.864; Signal to Background [16]: 89.4; AEB1 [17]: 6.8; AEB2 [17]: 6.32; Average AEB [17]: 6.56; Signal to Background [17]: 336; AEB1 [18]: 0.0065; AEB2 [18]: 0.0083; Average AEB [18]: 0.0074; Signal to Background [18]: 1.29; AEB1 [19]: 0.0065; AEB2 [19]: 0.0045; Average AEB [19]: 0.0055; Signal to Background [19]: 0.962; AEB1 [20]: 0.0087; AEB2 [20]: 0.0092; Average AEB [20]: 0.0089; Signal to Background [20]: 1.56
